Measurements as given in US20060246077 (published 2006).

Biological target: MUC18-V5-His (extracellular domain) (human, UniProt P43121)
Experiment: SPR, average

Chain of MUC18-V5-His (extracellular domain) (P43121 1-559): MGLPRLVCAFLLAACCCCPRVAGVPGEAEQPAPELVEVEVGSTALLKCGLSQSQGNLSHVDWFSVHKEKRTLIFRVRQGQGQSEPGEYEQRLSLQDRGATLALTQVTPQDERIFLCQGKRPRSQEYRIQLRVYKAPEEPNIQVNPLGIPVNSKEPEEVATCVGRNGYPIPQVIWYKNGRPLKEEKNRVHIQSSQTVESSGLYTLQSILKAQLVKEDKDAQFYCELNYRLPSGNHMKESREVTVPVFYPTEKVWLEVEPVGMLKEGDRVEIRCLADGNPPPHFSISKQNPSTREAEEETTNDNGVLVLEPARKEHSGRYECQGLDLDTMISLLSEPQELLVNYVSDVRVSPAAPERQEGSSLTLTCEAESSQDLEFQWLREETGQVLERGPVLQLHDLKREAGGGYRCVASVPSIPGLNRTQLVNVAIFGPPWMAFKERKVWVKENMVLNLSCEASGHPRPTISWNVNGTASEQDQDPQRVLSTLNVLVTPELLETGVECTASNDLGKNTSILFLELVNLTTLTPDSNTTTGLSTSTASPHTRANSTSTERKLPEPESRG

Kd: 0.61 nM
B1: c3.19.1 (antibody, V domains shown)
VH: QVQLQESGPGLVKPSETLSLTCTVSGGSISSYYWSWIRQPPGKGLEWIGYIYYTWTSNYNPSLKSRVTISVDTSKNQFSLRLSSVTAADTAVYYCARDQGQWLLPDAFDIWGQGTMVTVSS
VL: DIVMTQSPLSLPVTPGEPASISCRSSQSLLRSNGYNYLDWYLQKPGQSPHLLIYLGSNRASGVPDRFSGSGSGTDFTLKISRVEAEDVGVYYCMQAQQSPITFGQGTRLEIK
